Laboratory results from PMC11108873, “Emergence of a clinical Salmonella enterica serovar 1,4,[5], 12: i:-isolate, ST3606, in China with susceptibility decrease to ceftazidime-avibactam carrying a novel blaCTX-M-261 variant and a blaNDM-5” (European Journal of Clinical Microbiology & Infectious …, 2024).

What was measured:
Test in all cases: purified protein
Settings in all cases: 50 mM sodium phosphate pH 7.0, 30 °C, BSA added to enzyme dilution
[1] = test system: CC(C)(O/N=C(\C(=O)N[C@@H]1C(=O)N2C(C(=O)[O-])=C(C[n+]3ccccc3)CS[C@H]12)c1csc(N)n1)C(=O)O
[2] = test system: CO/N=C(\C(=O)N[C@@H]1C(=O)N2C(C(=O)O)=C(COC(C)=O)CS[C@H]12)c1csc(N)n1
[3] = test system: CO/N=C(\C(=O)N[C@@H]1C(=O)N2C(C(=O)O)=C(CSc3nc(=O)c(=O)[nH]n3C)CS[C@H]12)c1csc(N)n1
[4] = test system: CO/N=C(\C(=O)N[C@@H]1C(=O)N2C(C(=O)[O-])=C(C[N+]3(C)CCCC3)CS[C@H]12)c1csc(N)n1

Question: With CTX-M-1 (Escherichia coli) as the substance, how does the Km [1] read?
Answer: 328.8 ± 42 µM

Question: And the kcat [1]?
Answer: 43.6 ± 3.7 s⁻¹

Question: What about the kcat/Km [1] of the same substance?
Answer: 130000 M⁻¹ s⁻¹

Question: What about the Km [2] of the same substance?
Answer: 17.8 ± 2.5 µM

Question: And the kcat [2]?
Answer: 111 ± 25 s⁻¹

Question: And the kcat/Km [2]?
Answer: 6.2e+06 M⁻¹ s⁻¹

Question: What about the Km [3] of the same substance?
Answer: 10.5 ± 1.8 µM

Question: What about the kcat [3] of the same substance?
Answer: 105 ± 4.3 s⁻¹

Question: What about the kcat/Km [3] of the same substance?
Answer: 9.98e+06 M⁻¹ s⁻¹

Question: What about the Km [4] of the same substance?
Answer: 146 ± 21.3 µM

Question: What about the kcat [4] of the same substance?
Answer: 27.9 ± 8.6 s⁻¹

Question: What about the kcat/Km [4] of the same substance?
Answer: 190000 M⁻¹ s⁻¹
